The text below walks through data of patent publication US20150148520A1.

Several values for one entry are separate records, joined by “and”; a condition that tells them apart may be missing. Equal entries are not always repeated. Some results are limits rather than exact numbers.

Assay [1] concerns the target human IGF-1 receptor (human) (UniProt P08069). As to the kind of experiment: cell-based or functional assay.
Assay [2] has as its target insulin receptor, B subtype (UniProt P06213). As to the kind of experiment: cell-based or functional assay.
Assay [3] concerns the target insulin receptor, A subtype (UniProt P06213). As to the kind of experiment: cell-based or functional assay.
In assay [4] the target is human insulin receptor (human) (UniProt P06213). The experiment in a line: cell-based or functional assay.
For assay [5] the target is unchanged. The experiment in a line: SPA competition, [125I]-insulin, IR membranes.

“Ala,B5: B^1(A5H10Y16L17)25-C^1-A^1(H8N18N21) (from UniProt P05019 49-110) (ligand)” came in with a % (in vitro activity, IGF-1 R) in assay [1] of 2.5%. This substance returned a % (in vitro activity, IR-B) in assay [2] of 5.7%.

Regarding “DP3(SC): B^1(H5,10Y16L17K29)29-A^1(H8,N18,21) (from UniProt P05019 49-110) (ligand)”, the % (in vitro activity, IR-A) in assay [3] was 0.03%.

As to “DP3(TC): B^1(H5,10Y16L17K29)29: A^1(H8,N18,21) (ligand)”, the % (in vitro activity, IR-A) in assay [3] turned out to be 160%. In addition, in assay [2], the % (in vitro activity, IR-B) is 33.1%.

Consider “DP8Mut3KA14: B^1(H5,10Y16L17R29)30-C^1des9-12-A^1(H8,K14,N18,21) (from UniProt P05019 49-110) (ligand)”, for which the % (in vitro activity, IR-A) in assay [3] turned out to be 132%. In addition, the % (in vitro activity, IR-B) in assay [2] was 12.6%.

“IGF-1 A (H8 A9 N21): B (H5D10Y16L17 A22) DPI A-COOH (ligand)”: the % Insulin in assay [4] is 360% and 614%.

By IC50 is commonly meant the concentration at which inhibition is half-maximal. Read a high IC50 as a need for much substance. In assay [5], “IGF-1 A: B (H5D10Y16L17) (S═O) DPI (ligand)” yielded a % insulin (in test) of 316% and an IC50 of 0.25 nM.

In assay [5], IGF-1 A: B (H5D10Y16L17) DPI (ligand) registered a % insulin (in test) of 479% and an IC50 of 0.16 nM.

Turning to “MIU-35: B^1(H5,H10,Y16,L17)25-C^1-A^1(H8,N18,N21) (from UniProt P05019 49-110) (ligand)”, in assay [1], the % (in vitro activity, IGF-1 R) was 3.2% and the % Insulin Activity turned out to be 3.2%. In addition, in assay [3], the % (in vitro activity, IR-A) stood at 61.4% and the % Insulin Activity stood at 61.4%. Further, in assay [2], the % (in vitro activity, IR-B) stood at 17.4% and the % Insulin Activity worked out at 17.4%.

Consider “MIU-43 DP8Mut3: B^1(H5,10Y16L17R29)30-C^1des9-12-A^1(H8,N18,21) (from UniProt P05019 49-110) (ligand)”, for which, in assay [1], the % (in vitro activity, column IGF-1R) is 14.2%. Moreover, the % (in vitro activity, IR-A) in assay [3] was determined as 97.5%. Moreover, the % (in vitro activity, IR-B) in assay [2] came to 16.7%.

As for “MIU-56: C8-PEG20K B^1(H5,Y16,L17)25-PEG8-K-PEG4-A^1(N18,N21) (from UniProt P05019 49-110) (ligand)”, the % Insulin Activity in assay [3] was determined as 14.8%.

In assay [1], “MIU-57: B^1(H5,Y16,L17)25-C^1-A^1(N18,21) with a 20 kDa PEG on the N-terminus of the B chain (from UniProt P05019 49-110) (ligand)” displayed a % (in vitro activity, IGF-1 R) of 1.2% and a % Insulin Activity of 1.2%. For the same substance, in assay [3], the % (in vitro activity, IR-A) is 4.5% and the % Insulin Activity stood at 3.1%. Moreover, in assay [2], the % (in vitro activity, IR-B) was determined as 1.1% and the % Insulin Activity came out at 1.1%.

Regarding “MIU-58: dimer of two B^1(H5,Y16,L17)25-C^1-A^1(N18,21) linked head to head via a 20 kDa PEG chain (from UniProt P05019 49-110) (ligand)”, the % Insulin Activity in assay [1] worked out at 2.6%; in assay [3], 19.7%; in assay [2] it was 5.8%.

Consider “MIU-67: B^1(H5,Y16,L17)25-C^1(K8)-A^1(N18,21), two 10K PEG chains at the N-terminus and C8 (from UniProt P05019 49-110) (ligand)”, for which the results for the % Insulin Activity in assay [1], in assay [3] and in assay [2] were below 0.1%, 0.2% and 0.1%, respectively.

Consider “MIU-68: B^1(H5,Y16,L17,K22)25-C^1(K8)-A^1(N18,21), two 10K PEG chains at the N-terminus and B22 (from UniProt P05019 49-110) (ligand)”, for which the % Insulin Activity in assay [1] is below 0.1%; in assay [3], 0.4%; in assay [2] it was 0.1%.

“MIU-69: B^1(H5,Y16,L17)25-C^1(K8)-A^1(K14,N18,21), two 10K PEG chains at the N-terminus and A14 (from UniProt P05019 49-110) (ligand)”: the % Insulin Activity in assay [1] is below 0.1%; in assay [3] it was 1%; in assay [2] it was 0.5%.

For “MIU-78 mono-20K-TC: B1-20K B^1(H5,10Y16L17K29)29: A^1(H8N18,21) (ligand)”, the % (in vitro activity, IR-A) in assay [3] turned out to be 8.2%. The same substance returned a % (in vitro activity, IR-B) in assay [2] of 3.2%.

Regarding “MIU-79 di-10K-SC: B1, A14-10K B^1(H5,10Y16L17R29)30-C^1des9-12-A^1(H8,K14,N18,21) (from UniProt P05019 49-110) (ligand)”, the % (in vitro activity, IR-A) in assay [3] worked out at 1.7%. The same substance had a % (in vitro activity, IR-B) in assay [2] of 0.2%.

In assay [1], “Thr,A8: B^1(H5,10Y16L17)25-C^1-A^1(T8N18,21) (from UniProt P05019 49-110) (ligand)” gave a % (in vitro activity, IGF-1 R) of 3.7%. For the same substance, in assay [3], the % (in vitro activity, IR-A) was 20.4%. The % (in vitro activity, IR-B) in assay [2] was 8.4%.

With “di-10K-TC: B1, A14-10K B^1(H5,10Y16L17R29)29: A^1(H8K14N18,21) (ligand)”, the % (in vitro activity, IR-A) in assay [3] came to 6.4%. This substance also showed a % (in vitro activity, IR-B) in assay [2] of 2.1%.
